Biological target: thrombin (human alpha-thrombin not specified) (human, UniProt P00734;P00734 328-363;364-622)
Test: QCM-D; aptamer immobilised on streptavidin/biotin-PE/POPC bilayer; thrombin 1-25 ug/mL, shift 3 to 81 Hz; LOD 29 nM (not a Kd); PBS with CaCl2 and MgCl2 (concentrations not given), 0.1% BSA, 37 C; aptamer 0.5 uM loaded, heated to 95 C for 5 min and cooled to RT

Binder: CGCCTAGGTTGGGTAGGGTGGTGGCG (structured_DNA, 5'-biotin) [NU172 thrombin aptamer]
- binding result: binds

Source: publication PMC11201429
